Earlier results on 1 substance are cited in publication PMC9618554.

One may read the Kd as the equilibrium constant for the complex coming apart.

This data set concerns the target insulin receptor site-2' (Homo sapiens) (UniProt P06213).

Sequence of insulin (P01308 90-110): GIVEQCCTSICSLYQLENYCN

Regarding insulin (from UniProt P01308), the Kd was 0.4 µM.
